The values that follow come from patent US20160137740A1 (AstraZeneca / MedImmune, published 2016).

Assay [1] deals with T1, Human OX40 (human, UniProt P43489 29-277).
T1 sequence: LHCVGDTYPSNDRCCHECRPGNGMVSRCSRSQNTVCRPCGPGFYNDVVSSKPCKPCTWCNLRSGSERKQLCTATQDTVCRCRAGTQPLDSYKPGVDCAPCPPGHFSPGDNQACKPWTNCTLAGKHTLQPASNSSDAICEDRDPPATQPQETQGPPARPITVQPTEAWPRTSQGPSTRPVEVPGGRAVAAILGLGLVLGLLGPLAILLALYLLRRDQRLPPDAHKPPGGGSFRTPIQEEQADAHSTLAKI
Kind of assay: cell-based or functional assay.

Assay [2] addresses T1, Human OX40. The experiment in a line: cell-based or functional assay. This is another data set of the same source.
Assay [3] concerns the target T2, KO_CRD3 (human OX40 aa 108 to 146 replaced with the mouse counterparts) (human; mouse, UniProt P43489 29-277).
T2 construct: Chimeric variant with a transmembrane domain, transient on 293F cells
T2 chain: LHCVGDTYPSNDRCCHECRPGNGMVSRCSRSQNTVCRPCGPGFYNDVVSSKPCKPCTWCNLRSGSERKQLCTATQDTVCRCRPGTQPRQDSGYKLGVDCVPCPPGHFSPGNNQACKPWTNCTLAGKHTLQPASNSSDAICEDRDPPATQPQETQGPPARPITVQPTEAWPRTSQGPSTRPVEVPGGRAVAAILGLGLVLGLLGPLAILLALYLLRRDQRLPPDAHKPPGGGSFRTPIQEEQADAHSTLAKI
Kind of assay: flow cytometry, transfected 293F cells, column KO_CRD3.

The target in assay [4] is T3, KO_L116+A126 (human OX40 aa Leu116 and Ala126 replaced with the mouse counterparts) (human, UniProt P43489 29-277).
T3 construct: Variant with a transmembrane domain, transient on 293F cells
T3 chain: T1 sequence with L88Q, A98V
Kind of assay: flow cytometry, transfected 293F cells, column KO_L116A126 [FIGURE 32B con't]. As to the method: Forty-eight hours after transfection, HEK293F cells were incubated with 1 μg/mL of OX40mAb24 for 1 hour on ice in PBS. To detect bound OX40mAb24 by flow cytometry, the cells were washed 3-times with cold PBS, incubated with 1 μg/mL of Alexa480-conjugated anti-human IgG antibody for 1 hr on ice, and then analyzed using the LSRII flow cytometer.
The expression levels of all chimeric OX40 variants were also monitored by flow cytometry; the cells were incubated with a mixture of sheep anti-human OX40 and goat anti-mouse OX40 polyclonal antibodies at 1 μg/mL in PBS for 1 hour on ice. Cells were washed 3-times with cold PBS, and then incubated with a mixture of Alexa480-conjugated anti-goat and anti-sheep IgG polyclonal antibodies. After washing 3 times with cold PBS, cells were analyzed with the LSRII flow cytometer.

The target of assay [5] is T1, Human OX40. Kind of assay: flow cytometry on activated primary human CD4+ T cells; 50% receptor occupancy calculated from Kd. As to the method: (§1) OX40mAb24 (10 μg/mL) or 9B12 (10 μg/mL) was diluted over a 17 point 2-fold dilution series. OX40mAb24 was added to 100,000 cells (activated primary CD4⁺ T cells or human OX40-overexpressing Jurkat NFkB-luciferase clone 64 cells) per well and incubated for one hour at 4° C. For background binding subtraction, cells were incubated in the presence of secondary antibody alone. […] Following secondary antibody incubation, cells were washed and suspended in 100 μL FACS buffer for flow cytometry analysis on a BD LSRII flow cytometer as described below.

Assay [6] concerns the target T4, Recombinant human TNFRSF9 (CD137) (human, UniProt Q07011 24-186, limits assumed).
T4 construct: Plate-adsorbed antigen of the ELISA
Kind of assay: ELISA, plate coated with a dilution series of the recombinant TNFRSF protein [panel B]. The procedure: An eight point, two-fold dilution series of each recombinant human TNFRSF protein was prepared after dilution of stock proteins to 5 μg/mL in PBS. Subsequently, 50 μL of each antigen dilution was transferred in duplicate to wells of a Nunc 96-well MaxiSorp flat bottom plate, and incubated overnight at 4° C. to adsorb proteins to the plate. Afterwards, plates were washed three times with PBS in a BioTek® plate washer to remove unbound protein. Anti OX40 mAb29, 9B12, and control antibodies were diluted in PBS to a final concentration of 10 μg/mL, and 50 μL of mAb were added to each well and incubated at room temperature for one hour to bind mAb to plate-bound protein. Thereafter, wells were washed with PBS/Tween-20 0.1% (volume/volume) using a BioTek® plate washer. HRP conjugated goat anti-human or goat anti-mouse secondary antibodies at 10 μg/mL was added to each well and incubated at room temperature for 1 hour. After three washes in PBS/Tween-20 0.1%, 50 μL of TMB substrate was added to each well and incubated at room temperature for 5 minutes to develop the colorimetric product. Reactions were stopped by adding 50 μL of 0.5 molar H₂SO₄ to wells, and plates read immediately at 450 nm using an Envision C plate reader for detection of the colorimetric product.

Assay [7] deals with T1, Human OX40. The experiment in a line: flow cytometry, equilibrium binding to activated primary human CD4+ T cells; apparent Kd, mean of 6 donors (StdErr). The procedure: as §1
Assay [8] concerns the target T1, Human OX40. Kind of assay: flow cytometry on activated primary human CD4+ T cells, AlexaFluor 488 anti-mouse IgG secondary [FIGURE 2A-D, con't.), panel C]. As to the method: as §1

Positions count from the first letter of the chain named. Where “and” joins values, the source holds several entries; their conditions need not be identical. Identical values can stand only once.

B1: 9B12 (antibody, mouse IgG1, V domains shown)
VH: EVQLQESGPSLVKPSQTLSLTCSVTGDSFTSGYWNWIRKFPGNRLEYMGYISYNGITYHNPSLKSRISITRDTSKNHYYLQLNSVTTEDTATYFCARYRYDYDGGHAMDYWGQGTLVTVSS
VL: DIQMTQTTSSLSASLGDRVTISCRASQDISNYLNWYQQKPDGTVKLLIYYTSKLHSGVPSRFSGSGSRTDYSLTITDLDQEDIATYFCQQGSALPWTFGQGTKVEIKR
notes: mouse IgG1 kappa; also called murine mAb 9B12; mouse anti-human OX40 IgG1κ monoclonal antibody
Consider B1, for which, in the assay with Human OX40 [1], the “EC50, CD4+ T cell proliferation, donor 367” value is 0.156 nM; the “EC50, CD4+ T cell proliferation, donor 645” value amounted to 0.169 nM; the “EC50, CD4+ T cell proliferation, donor 651” value is 0.309 nM; the “EC50, CD4+ T cell proliferation, donor 661” value was 0.237 nM. Further, in the assay with Human OX40 [2], the “EC50, IL13 release, donor 645” value turned out to be 5.45 nM; the “EC50, IL13 release, donor 651” value was 1.77 nM; the “EC50, IL13 release, donor 661” value is 0.238 nM. Moreover, in assay [3], the binding result was “no binding”. The binding result in assay [4] was “no binding”. For the same molecule, the EC50 with Human OX40 [5] was 0.669 nM. Further, in assay [6], the binding result was “no binding”. Besides, the Kd with Human OX40 [7] is 0.669 nM. Also, the “EC50 (read off the curve)” value with Human OX40 [8] was ~1 nM and ~0.5 nM.
